# Measurements taken from patent US20060099646A1, “Bret assay” (priority 2002, published 2006).
# Assays:
# [1] = target: T1, β2AR receptor (Homo sapiens, UniProt P07550); test: BRET assay, β2AR-Rluc / β-arrestin-2-GFP; assay type: cell-based; settings: β2AR receptor (class A) coexpressed with β-arrestin mutant; versus WT; FIG. 2
# T1 construct: expressed in transfected cells
# Experimental: (§1) Cell Preparation for BRET Assay: • 1. 48 hrs after transfection with 2 μg receptor-Rluc DNA (e.g. NK1-Rluc or β2AR-Rluc) and 5 μg β-arrestin-2 DNA (e.g. the R393E; R395E mutant) (for assays with GRK also 2 μg GRK DNA, e.g. GRK-5) media was removed and cell washed 1× with PBS • 2. 1 ml 1× trypsin (T75 flask) was added and incubated 3-5 min at 37 C • 3. 10 mL complete media was added. • 4. Cells were transferred to tube and spun down (5 min, 800 rpm) • 5. Media was removed, and cells resuspended in 10 ml PBS and counted, spun down (5 min, 800 rpm) • 6. Resuspended in D-PBS with 1000 mg/l L-Glucose (#14287) to a density of 2×10^6 cells/ml • 7. Cells were left at room temperature for at least 30 min, to stabilize readings.
# (§2) Assay: • 1. Dilution of DeepBlueC to 100 μM in 40% ethanol in D-PBS with 1000 mg/l L-Glucose (#14287) (light sensitive!!). The DeepBlueC™ stock solution comprises 1 mM DeepBlueC™ in 100% v/v EtOH.
# (§3) The dilution of DeepBlueC in 40% ethanol/buffer is essential for the stability of DeepBlueC. If DeepBlueC is diluted in buffer alone, it will precipitate within 10 to 20 minutes, making it virtually impossible to use the assay in HTS mode. […] 100 μl of resuspended cells were transferred into wells in 96-well white optiplate plate • 3. […] 5 μl of diluted DeepBlueC/well was added, and the plate was read.
# (§4) Antagonist: • 1. […] 6 μl of diluted DeepBlueC/well was added, and the plate read.
# [2] = target: T2, β2AR/Rluc receptor (Homo sapiens, UniProt P07550); test: β2AR internalization assay; assay type: cell-based; settings: COS-7 cells, co-expressed with β2AR/Rluc; isopterenol 10 min at 37° C; versus WT β-arrestin; FIG. 1
# T2 construct: expressed in transfected cells; host or cells: COS-7
# Experimental: COS-7 cells in 75 cm^2 flask (3×10^6 cells/flask) were used for trasfection. β2AR/Rluc receptor (1.3 μg cDNA/flask) was coexpressed together with 6.5 μg GFP^2/β-arrestin 2, 6.5 μg GFP^2/β-arrestin R169E, 6.5 μg GFP^2/β-arrestin Lys 373 stop or 6.5 μg GFP^2/β-arrestin R393E, R395E. Receptor internalization assay was based on protocol described by Barak and Caron J Recept Signal Transduct Res 1995 January-March;15(14):677-90. At the end of transfection period (3-5 hours), cells were washed twice with PBS, trypsinesed and plated at a density of 2.5×10^5 cells per well in 12-well plates. After 48 hours, cells were washed once with assay medium (HEPES-modified DMEM with 0.1% BSA, pH 7.4) and serum-starved in the same medium for additional 2-3 hours before being stimulated with […] isopterenol for 10 min at 37° C. Stimulation was stopped by washing the cells with ice-cold PBS. Cells were then subjected to [^125I]-pindolol binding at 4° C. for 3 h and the fraction of internalized receptors determined relative to unstimulated cells. Non-specific binding was determined under the same conditions in the presence of 1 μM pindolol.
# [3] = target: T3, NK1 receptor (Homo sapiens, UniProt P25103); test: BRET assay, NK1-Rluc / β-arrestin-2-GFP; assay type: cell-based; settings: NK1 receptor (class B) coexpressed with β-arrestin mutant; versus WT; FIG. 2
# T3 construct: expressed in transfected cells
# T3 sequence (P25103 whole entry, species assumed): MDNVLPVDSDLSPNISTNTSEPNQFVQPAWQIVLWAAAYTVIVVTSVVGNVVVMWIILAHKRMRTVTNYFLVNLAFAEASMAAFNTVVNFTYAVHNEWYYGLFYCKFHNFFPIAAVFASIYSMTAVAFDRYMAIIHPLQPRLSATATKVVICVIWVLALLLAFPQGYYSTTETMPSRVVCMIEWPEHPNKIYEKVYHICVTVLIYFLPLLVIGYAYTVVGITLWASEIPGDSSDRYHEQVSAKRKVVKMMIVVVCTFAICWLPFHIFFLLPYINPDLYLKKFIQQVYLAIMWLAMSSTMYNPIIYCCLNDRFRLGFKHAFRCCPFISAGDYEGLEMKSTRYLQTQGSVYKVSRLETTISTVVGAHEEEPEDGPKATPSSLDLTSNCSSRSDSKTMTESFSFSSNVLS
# Experimental: as §1, §2, §3, §4
# [4] = target: T4, NK-1/Rluc receptor (Homo sapiens, UniProt P25103); test: NK-1 receptor internalization assay; assay type: cell-based; settings: COS7 cells, co-expressed with NK-1/Rluc; 125I-SP 10 min at 37 C; versus WT β-arrestin; FIG. 1
# T4 construct: expressed in transfected cells; host or cells: COS7
# T4 sequence (P25103 whole entry): as the sequence (P25103 whole entry, species assumed) above
# Experimental: COS7 cells in 75 cm^2 flask (3×10^6 cells/flask) were used for transfection. NK-1/Rluc receptor (2 μg cDNA/flask) was coexpressed together with 6 μg GFP/β-arrestin 2, 6 μg GFP^2/β-arrestin R169E, 6 μg GFP^2/β-arrestin Lys 373 stop or 6 μg GFP^2/β-arrestin R393E, R395E. At the end of transfection period (3-5 hours), cells were washed twice with PBS, trypsinased and plated at a density of 2.5×10^5 cells per well in 12-well plates. After 48 hours, cells were washed once with assay medium (HEPES-modified DMEM with 0.1% BSA, pH 7.4) and incubated in assay medium for at least 1 hour before being incubated with ^125I-labeled SP (30000 cpm/well) in 0.5 ml assay medium 10 min at 37 C. Cells were then transferred onto ice and washed twice with ice-cold PBS. Subsequently, the extracellular receptor-associated ligand was removed by washing once with 1 ml of acid solution (50 mM acetic acid and 150 mM NaCl, pH 2.8) for 12 min. The acid wash was collected to determine the surface-bound radioactivity, and the internalized radioactivity was determined after solubilizing the cells in 0.2 M NaOH and 1% SDS (NaOH/SDS) solution. Nonspecific binding for each time point was determined under the same conditions in the presence of 1 μM unlabeled agonist (SP). After subtraction of nonspecific binding, the internalized radioactivity was expressed as a percentage of the total binding.
# [5] = Precipitation / stability of diluted DeepBlueC substrate solution; assay type: physicochemical
# Experimental: One of the problems associated with setting up an assay, such as, e.g. a high through-put screening (HTS) assay, is to prepare a suitable solution of the substrate, DeepBlueC™. If the stock solution of DeepBlueC™ is diluted to the relevant concentration for use in a BRET assay in D-PBS as recommended, it will form a precipitate within 10 to 20 minutes, making it virtually impossible to use for a HTS assay.
# as §2
# (§5) The dilution of DeepBlueC in 40% ethanol/buffer is essential for the stability of DeepBlueC. If DeepBlueC is diluted in buffer alone, it will precipitate within 10 to 20 minutes, making it virtually impossible to use the assay in HTS mode. […] 100 μl of resuspended cells were transferred into wells in 96-well white optiplate plate • 3. 12 μl agonist was added. • 4. 5 μl of diluted DeepBlueC/well was added, and the plate was read.
# [6] = test system: renilla luciferase; test: Light emission from renilla luciferase after addition of DeepBlueC solution (FIG. 3)
# Experimental: as §5
specific BRET ratio (BRET signal) [1],internalization of the β2AR [2],specific BRET ratio (BRET signal) [3],internalization of the NK1-R [4],Molecule,stability of diluted solution ([5]; diluted in 40% ethanol in D-PBS with 1000 mg/l L-Glucose),"time to formation of precipitate ([5]; stock solution diluted in D-PBS / buffer alone, no ethanol)",stability of light emission signal ([6]; DeepBlueC dissolved in buffer with 0% ethanol),stability of light emission signal ([6]; DeepBlueC dissolved in buffer with 6% ethanol),stability of light emission signal ([6]; DeepBlueC dissolved in buffer with 40% ethanol)
increasing the BRET signal significantly,inhibiting the internalization,the effect is less pronounced,inhibiting the internalization,human β-arrestin-2 R393E; R395E mutant: human β-arrestin-2 wherein amino acids 393 and 395 have been changed from arginine to glutamic acid; used as GFP fusion,–,–,–,–,–
–,–,–,–,O=c1c(Cc2ccccc2)nc2c(Cc3ccccc3)[nH]c(-c3ccccc3)cn1-2 [DeepBlueC],stable for hours,10 to 20 min,rapidly decreases,rapidly decreases,stable for the duration of the experiment
increasing the BRET signal significantly,inhibiting the internalization,the effect is less pronounced,inhibiting the internalization,human β-arrestin-2 373 stop mutant: truncated human β-arrestin-2 lacking clathrin and/or AP2 binding sites; used as GFP fusion,–,–,–,–,–
